In publication PMC4208696 (Biophysical chemistry, 2014):
Where two headings read alike, the source gives them in different places.

Assays:
Experiment in all cases: fluorescence polarisation
[1] = target: T1, full-length mammalian calmodulin (CaM_(1–148)) (mammalian (no species named), UniProt P0DP23 1-149)
[2] = target: T2, CaM C-domain fragment, residues 76 to 148 (CaM_(76–148)) (mammalian (no species named), UniProt P0DP23 77-149)
[3] = target: T3, CaM N-domain fragment, residues 1 to 80 (CaM_(1–80)) (mammalian (no species named), UniProt P0DP23 2-81)
[4] = target: T1, full-length mammalian calmodulin …; remark: listed apart in the source
[5] = target: T2, CaM C-domain fragment, residues 76 to …; remark: listed apart in the source
[6] = target: T3, CaM N-domain fragment, residues 1 to 80 …; remark: listed apart in the source

Question: How did the Kd [1] turn out when {5,6‑carboxyfluorescein}-SRYGLLIKAFSMTAAETARRTREFR-NH2 [Fl–hRyR1(1975–1999)p: hRyR1(1975–1999)p with a 5,6-carboxyfluorescein moiety at the N-terminus] was run?
Answer: ~850 µM

Question: And the Kd [2]?
Answer: ~650 µM

Question: What about the Kd [3] of the same binder?
Answer: ~7 mM

Question: What about the Kd [4] of the same binder?
Answer: 660 ± 10 nM

Question: And the Kd [5]?
Answer: 9.21 ± 0.82 µM

Question: And the Kd [6]?
Answer: 12.5 ± 1.95 µM

Question: With {5,6‑carboxyfluorescein}-KSKKAVWHKLLSKQRRRAVVACFRMTPLYN-NH2 [Fl–hRyR1(3614–3643)p: hRyR1(3614–3643)p with a 5,6-carboxyfluorescein moiety at the N-terminus] as the binder, how does the Kd [1] read?
Answer: 6.79 ± 3.05 µM

Question: And the Kd [2]?
Answer: 24.9 ± 4.27 µM

Question: And the Kd [3]?
Answer: ~1.5 mM

Question: And the Kd [4]?
Answer: ≤ 1 nM

Question: What about the Kd [5] of the same binder?
Answer: ≤ 0.01 µM

Question: And the Kd [6]?
Answer: 2.5 ± 0.83 µM
